Measurements: patent US20240100176A1 (Eli Lilly, published 2024)

What was measured:
Assay in all cases: capture ELISA: Ab1 on anti-human IgG Fc, His-tagged receptor at 0.2 µg/mL, anti-His HRP
[1] = biological target: T1, hexahistidine tagged human IL-4Rα ECD R148D (human, UniProt P24394 26-232)
T1 construct: not shown: hexahistidine tag
Description: (§1) Example 2d. […] Briefly, thirty surface amino acid residue substitutions were introduced individually into hexahistidine tagged human IL-4Rα extra cellular domain (ECD) as follows: K2D, E6R, K22D, P26R, T31R, F41A, L42G, L43G, E45R, E52R, G56R, D66R, A71R, Q82G, K87D, E94R, H107A, D108R, P124R, D125R, D143R, R148D, L155R, R160D, S164R, S168R, Q181R, P192R, K195D, or H197G. Each mutant protein having a single amino acid residue substitution as described above was transiently expressed in CHO cells and purified using standard immobilized metal affinity chromatography techniques. […] The plates were then washed 3 times with PBST and the exemplified human IL-4Rα antibody was added to the wells at a final concentration of 1 μg/mL in PBS-casein and incubated for 1 hour at room temperature. The plates were washed 3 times with PBST, the IL-4Rα mutant proteins were serially diluted 5-fold from 1 μg/mL for 3 points. in PBS-casein and added to the plate at 50 μL/well and incubated for 1 hour at room temperature. The plates were washed 3 times with PBST and a 1000-fold dilution of anti-histidine tag antibody HRP conjugate (R&D Systems, Cat. #MAB050H) in PBS-casein was added and incubated for 45 minutes at room temperature. The plates were washed 3 times, TMB substrate (Pierce, Cat. #34028) was added per manufacturer instructions, the reaction was quenched with H₂SO₄, and absorbance was read at 450 nm on an ELISA plate reader.

[2] = biological target: T2, hexahistidine tagged human IL-4Rα ECD D143R (human, UniProt P24394 26-232)
T2 construct: not shown: hexahistidine tag
Description: as §1

[3] = biological target: T3, hexahistidine tagged human IL-4Rα ECD S164R (human, UniProt P24394 26-232)
T3 construct: not shown: hexahistidine tag
Description: as §1

[4] = biological target: T4, hexahistidine tagged human IL-4Rα ECD K87D (human, UniProt P24394 26-232)
T4 construct: not shown: hexahistidine tag
Description: as §1

T3 sequence (P24394 26-232 S189R): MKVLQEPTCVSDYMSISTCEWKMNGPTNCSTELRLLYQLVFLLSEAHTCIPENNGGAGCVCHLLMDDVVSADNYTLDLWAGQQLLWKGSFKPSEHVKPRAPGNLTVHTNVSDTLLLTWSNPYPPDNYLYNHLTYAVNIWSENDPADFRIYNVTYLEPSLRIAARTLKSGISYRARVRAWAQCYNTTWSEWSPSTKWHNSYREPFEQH
T1 sequence (P24394 26-232 R173D): as the sequence (P24394 26-232 S189R) above, with R148D, R164S counted along it
T4 sequence (P24394 26-232 K112D): as the sequence (P24394 26-232 S189R) above, with K87D, R164S counted along it
T2 sequence (P24394 26-232 D168R): as the sequence (P24394 26-232 S189R) above, with D143R, R164S counted along it

B1: anti-human IL-4Rα antibody Ab1 (antibody, human IgG4 S228P, kappa)
heavy: QVQLVESGGGLVQPGGSLRLSCVASGFTFSHSSMNWVRQAPGKGLEWVSYISRATGAVYYADSVKGRFTISRDNAKNSLYLQMNSLRDEDTAVYYCAREPVFDYWGQGTLVTVSSASTKGPCVFPLAPCSRSTSESTAALGCLVKDYFPEPVTVSWNSGALTSGVHTFPAVLQSSGLYSLSSVVTVPSSSLGTKTYTCNVDHKPSNTKVDKRVESKYGPPCPPCPAPEFLGGPSVFLFPPKPKDTLMISRTPEVTCVVVDVSQEDPEVKFNWYVDGVEVHNAKTKPREEQFNSTYRVVSVLTVLHQDWLNGKEYKCKVSNKGLPSSIEKTISKAKGQPREPQVYTLPPSREEMTKNQVSLTCLVKGFYPSDICVEWESNGQPENNYKTTPPVLDSDGSFFLYSRLTVDKSRWQQGNVFSCSVMHEALHNHYTQKSLSLSLG
light: DIQMTQSPSAMSASVGDRVTITCRASQDISNYLAWFQQKPGKVPTRLIYAASSLQSGVPSRFSGSGSGTEFTLTISSLQPEDFATYYCLQWSSYPRTFGQGTKVEIKRTVAAPSVFIFPPSDEQLKSGTASVVCLLNNFYPREAKVQWKVDNALQSGNSQESVTEQDSKDSTYSLSSTLTLSKADYEKHKVYACEVTHQGLSSPVTKSFNRGEC
notes: human kappa light chain; also called anti-human IL-4Rα Ab1; unconjugated Ab1
[1]
  ELISA (OD450): 1.6 OD450
[2]
  ELISA (OD450): 1.69 OD450
[3]
  ELISA (OD450): 1.77 OD450
[4]
  ELISA (OD450): 1.56 OD450
